Results published in the supplement of paper PMC7877785.
± gives the uncertainty stated by the source.

Assay: self-splicing fitness, log relative to wild type (ln ratio); higher = more splicing; Tetrahymena group I intron in knt gene, E. coli kanamycin selection, DiMSum; sequences stand for … in CUCUCU…GGAGGGAAAAGUUAUCAGGCAUGCACCUGGUAGCUAGUCUUUAAACCAAUAGAUUGCAUCGGUUUAAAAGGCAAGACCGUCAAAUUGCGGGAAAGGGGUCAACAGCCGUUCAGUACCAAGUCUCAGGGGAAACUUUGAGAUGGCCUUGCAAAGGGUAUGGUAAUAAGCUGACGGACAUGGUCCUAACCACGCAGCCAAGUCCUAAGUCAACAGAUCUUCUGUUGAUAUGGAUGCAGUUCACAGACUAAAUGUCGGUCGGGGAAGAUGUAUUCUUCUCAUAAGAUAUAGUCGGACCUCUCCUUAAUGGGAGCUAGCGGAUGAAGUGAUGCAACACUGGAGCCGCUGGGAACUAAUUUGUAUGCGAAAGUAUAUUGAUUAGUUUUGGAGUACUCGUGGUCG
Procedure, shortened: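 Pooled colonies went to amplicon sequencing on an Illumina HiSeq 2500 after six replicate transformations. The plates were LB agar with 100 μg/mL carbenicillin, 50 μM IPTG and 0.2% rhamnose, with or without 25 μg/mL kanamycin, incubated overnight at 37°C or 30°C. The E. coli BL21(DE3) library had all eight P1ex-region intron nucleotides randomised, the intron placed in the knt kanamycin-resistance gene on pET-22b(+). DiMSum fitness is the error-weighted combination of replicate fold changes, kanamycin against none, normalised to wild type.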

Sequence | self-splicing fitness (ln) (30 °C) | self-splicing fitness (ln) (37 °C)
GAGAAGCAAUAUUACGGAGU | -3.2 ± 0.24 | 0.0737 ± 0.12
GAGAAGCAAUAUUACGGCGA | 0.0811 ± 0.15 | -0.777 ± 0.12
GAGAAGCAAUAUUACGGCUG | -0.733 ± 0.088 | -0.161 ± 0.12
GAGAAGCAAUAUUACGGUAC | -2.92 ± 0.23 | -1.54 ± 0.21
GAGAAGCAAUAUUACGGUGG | -2.14 ± 0.14 | -2.93 ± 0.25
GAGAAGCAAUAUUACGUAGC | -3.47 ± 0.35 | -0.876 ± 0.21
GAGAAGCAAUAUUACGUCCU | -1.59 ± 0.23 | –
GAGAAGCAAUAUUACGUCGG | -3.32 ± 0.19 | -2.35 ± 0.24
GAGAAGCAAUAUUACGUGAC | -2.18 ± 0.12 | -1.29 ± 0.17
GAGAAGCAAUAUUACGUGGC | -3.59 ± 0.17 | -0.933 ± 0.11
GAGAAGCAAUAUUACGUGUU | -2.43 ± 0.098 | -1.53 ± 0.14
GAGCAGCAAUAUUACGAAAG | -3.71 ± 0.33 | -1.93 ± 0.22
GAGCAGCAAUAUUACGACCG | -2.42 ± 0.12 | -1.27 ± 0.15
GAGCAGCAAUAUUACGACGA | -0.16 ± 0.15 | 0.077 ± 0.17
GAGCAGCAAUAUUACGAGUG | -2.8 ± 0.17 | -1.09 ± 0.19
GAGCAGCAAUAUUACGAUGC | -1.47 ± 0.092 | -0.514 ± 0.11
GAGCAGCAAUAUUACGCCGA | -1.55 ± 0.17 | -0.726 ± 0.18
GAGCAGCAAUAUUACGCUGC | -3.72 ± 0.18 | -3.06 ± 0.27
GAGCAGCAAUAUUACGCUUA | -0.991 ± 0.077 | -0.238 ± 0.11
GAGCAGCAAUAUUACGGACA | -2.64 ± 0.15 | -1.53 ± 0.12
GAGCAGCAAUAUUACGGGGC | -3.57 ± 0.21 | -2.52 ± 0.25
GAGCAGCAAUAUUACGGGUU | -2.44 ± 0.14 | -2.02 ± 0.16
GAGCAGCAAUAUUACGGUUC | -3.92 ± 0.42 | -1.9 ± 0.38
GAGCAGCAAUAUUACGUCCU | -0.165 ± 0.12 | -0.134 ± 0.16
GAGCAGCAAUAUUACGUGGC | -3.71 ± 0.27 | -1.63 ± 0.14
GAGCAGCAAUAUUACGUUAU | -1.77 ± 0.087 | -1.3 ± 0.12

Sequence | self-splicing fitness (ln) (30 °C) | self-splicing fitness (ln) (37 °C)
GAGGAGCAAUAUUACGAAAU | -3 ± 0.4 | -1.14 ± 0.23
GAGGAGCAAUAUUACGAAUA | -3.68 ± 0.4 | -3.08 ± 0.38
GAGGAGCAAUAUUACGAGAA | -1.98 ± 0.41 | -2.44 ± 0.33
GAGGAGCAAUAUUACGAUGC | -2.85 ± 0.26 | -1.21 ± 0.21
GAGGAGCAAUAUUACGAUUC | -3.4 ± 0.27 | -1.65 ± 0.22
GAGGAGCAAUAUUACGCAUA | -1.86 ± 0.35 | –
GAGGAGCAAUAUUACGCCGA | -1.95 ± 0.33 | -1.77 ± 0.28
GAGGAGCAAUAUUACGGACC | – | -0.0508 ± 0.35
GAGGAGCAAUAUUACGGAUA | -3.62 ± 0.28 | -2.33 ± 0.37
GAGGAGCAAUAUUACGGCCU | -1.99 ± 0.38 | –
GAGGAGCAAUAUUACGGCUG | -1.48 ± 0.15 | -1.88 ± 0.31
GAGGAGCAAUAUUACGGGUC | -2.98 ± 0.17 | -3.24 ± 0.32
GAGGAGCAAUAUUACGGUAC | – | -2.14 ± 0.26
GAGGAGCAAUAUUACGGUGA | -3.55 ± 0.37 | -1.49 ± 0.28
GAGGAGCAAUAUUACGUAUA | – | -2.74 ± 0.4
GAGGAGCAAUAUUACGUAUU | -3.47 ± 0.32 | 0.0104 ± 0.25
GAGGAGCAAUAUUACGUGGC | -3.34 ± 0.24 | –
GAGGAGCAAUAUUACGUUAA | -2.94 ± 0.36 | -1.65 ± 0.21
GAGGAGCAAUAUUACGUUCC | – | -2.82 ± 0.48
GAGGAGCAAUAUUACGUUUU | -2.16 ± 0.13 | -1.56 ± 0.15
GAGUAGCAAUAUUACGAAAA | -2.8 ± 0.38 | –
GAGUAGCAAUAUUACGAAGC | -2.94 ± 0.32 | -1.8 ± 0.44
GAGUAGCAAUAUUACGAAUG | -3.18 ± 0.26 | -1.89 ± 0.22
GAGUAGCAAUAUUACGACAA | -0.891 ± 0.12 | -0.0944 ± 0.12
GAGUAGCAAUAUUACGACAC | -0.768 ± 0.18 | -0.953 ± 0.27
